Test results: patent US7056694B1, “DNA encoding peripheral-type benzodiazipine receptor associated protein 7 and applications or methods of use” (Georgetown University, priority 1998, dated 2006)

Tests used:
[1] = biological target: T1, GAL4 (1-147)-PBR fusion (plasmid pGBT9+PBR), mouse peripheral-type benzodiazepine receptor as two-hybrid bait (mouse, UniProt P04386 1-147; P50637 1-169); experiment: yeast two-hybrid, His3 reporter (histidine prototrophy), second-round transformation of HF7c carrying pGBT9-PBR
T1 construct: Bait of the yeast two-hybrid screen, expressed in yeast HF7c; also called pGBT-PBR; fusion PBR protein
Text: The Clontech […] two-hybrid system was applied in this study (detailed in manufacturer's instruction book). Briefly, the yeast reporter host strain HF7c was simultaneously cotransformed with both pGBT-PBR and the mouse testis cDNA library in pGAD10 plasmid by using lithium acetate high-efficiency method (Gietz, D. et al., 1992, *Nucleic Acids Res.* 20, 1425). HIS positive clones were further selected by colony lift filter assay for β-galactosidase activity. Plasmid DNA was rescued in *Escherichia coli* DH5? from yeast cells. Plasmids were retransformed into yeast HF7c cells with plasmid pGBT-PBR to test for histidine prototrophy and β-galactosidase activity (Clontech manual). The cDNA inserts from the positive clones were sequenced. The full length PAP7 cDNA was obtained by using 5' and 3' RACE kit from kit (CLONTECH, Palo Alto, Calif.).
Library plasmids from these transformants were rescued in *E. coli* strain DH5α. Both the His+ phenotype and the expression of β-galactosidase were confirmed by a second-round transformation of strain HF7c carrying pGBT9-PBR (Table 1).

PBR = PBR (Mus musculus, UniProt P50637); experiment: PK 11195 radioligand binding to PBR interacting with PAP20; settings: PK11195 as a ligand
Chain of PBR (P50637 whole entry): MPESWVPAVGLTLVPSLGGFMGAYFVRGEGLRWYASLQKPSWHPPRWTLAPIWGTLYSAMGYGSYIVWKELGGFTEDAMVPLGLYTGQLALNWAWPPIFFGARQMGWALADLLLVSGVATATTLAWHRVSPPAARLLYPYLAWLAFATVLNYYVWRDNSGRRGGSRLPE
Protocol: ^3H-1-(2-chlorophenyl)-N-methyl-N-(1-methyl-propyl)-3-isoquinolinecarboxamide (PK 11195) (NEN, Boston, Mass.) binding studies were performed as we previously described (Papadopoulos, V. et al., 1990, supra; Garnier, M. et al., 1994, Molecular Pharmacology 45, 201–211). The dissociation constant (Kd) and the number of binding sites (Bmax) were determined by Scatchard plot analysis of the data using the LIGAND program (Munson, P. J. and Rodbard, D., 1980, Anal. Biochem. 107, 220–239).

MA-10 cells = experiment: Steroid biosynthesis: hCG-stimulated progesterone production in transfected MA-10 cells; format: cell-based, mouse; settings: pSVzeoPAP7 vs pSVzeo empty vector transfectants, hCG 50 ng/ml, dose and time dependent
Protocol: MA-10 cells were grown in modified Waymouth's MB752/1 medium containing 15% horse serum, as described previously (Papadopoulos, V. et al., 1990, J. Biol. Chem. 265, 3772–3779). Mouse C6 glioma and mouse Y1 adrenal cortical cells were cultured in DMEM and DMEM F12 repectively, with 10% fetal bovine serum. MA10 cells were transiently transfected by electroporation (El Hefnawy, T. et al., 1996, Mol. Cell Endocrinol. 119, 207–217). Each Genepulser cuvette (0.4 cm-gap, BioRad, Hercules, Calif.) contained 8×10^6 cells in 350 μl antibiotic-free complete Waymouth's growth medium (see above), plus 30 μg plasmids DNA in 50 μl of 0.1×TE. Cells in electroporation cuvettes were electro-shocked at 330 V and at a capacitance of 950 μFd generated from Genepulser (BioRad, Hercules, Calif.). The cells were kept immediately on ice for 10 min before plated into 96 well plates.
MA-10 cells were plated into 96-well plate at the density of 2.5×10^4/well for overnight. The cells were stimulated with 50 ng/ml hCG in 0.2 ml/well serum-free medium for 2 hours. The culture medium was collected and tested for progesterone production by RIA. The assay was carried out by using anti-progesterone antisera (ICN, Costa Mesa, Calif.), following the conditions recommended by the manufacturer. […] Radioimmunoassay data was analyzed using the software provided by Wallac (EG&G Wallac, Gaithersburg, Md.). […]

B1: PAP20 (PBR associated protein 20), two-hybrid clone in pGAD10 (other)
chain: ANFNQSGNIADSSLSFTFTNSSNGPNLITTQTNSQALSQPIASSNVHDNFMNNEITASKIDDGNNSKPLSPGWTDQTAYNAFGITTGMFNTTTMDDVYNYLFDDEDTPPNPKKENSRPRRPQKRKRGAEVLAAQIVQKTRLERKKQEASVSKDAPVPTNTKRAKKQEKSPGRIASQSKPPMKKSPQKRKVNVARGRRNTRKQLQPAEKEIALHLQSEISSDGQKDGLNLSTSQQESISMIPKGPPENSVISCDSQALNMLADLALSSAAASIPSCKPRNLPCVSDLPRNNVLLTKENPLLGASDHEYHKG
notes: range 768-881
- binding result [1]: binds

B2: PAP20: PBR associated protein, polypeptide of 196 amino acids, SEQ ID NO:10; predominantly expressed in testis (protein, listed as Mus musculus)
chain: NSRPRRPQKRKRGAEVLAAQIVQKTRLERKKQEASVSKDAPVPTNTKRAKKQEKSPGRIASQSKPPMKKSPQKRKVNVARGRRNTRKQLQPAEKEIALHLQSEISSDGQKDGLNLSTSQQESISMIPKGPPENSVISCDSQALNMLADLALSSAAASIPSCKPRNLPCVSDLPRNNVLLTKENPLLGASDHEYHKG
- affinity of ligand binding to PBR (PBR): increased the affinity of ligand binding

B3: PAP7: PBR associated protein 7, SEQ ID NO:7; in transfection a partial sequence including the PBR binding domain in pSVzeo (protein, listed as Mus musculus)
chain: RPRRPKVELFTVVTRVKVVLFLNQLSLCKLVKDGKAFHPTYEEKLKFVALHKQVLLGPYNPDTSPEVGFFDVLGNDRRREWAALGNMSKEDAMVEFVKLLNKCCPLLSAYVASHRIEKEEEEKRRKAEEERRQREEEERERLQKEEEKRKREEEDRLRREEEERRRIEEERLRLEQQKQQIMAALNSQTAVQFQQYAAQQYPGNYEQQQILIRQLQEQHYQQYKHQAEQTQPAQQQAALQKQQEVVMAGASLPASSKVNTAGASDTLSVNGQAKTHTENSEKVLEPEAAEEALENGPKDSLPVIAAPSMWTRPQIKDFKEKIRQDADSVITVRRGEVVTVRVPTHEEGSYLFWEFATDSYDIGFGVYFEWTDSPNAAVSVHVSESSDEEEEEEENVTCEEKAKKNANKPLLDEIVPVYRRDCHEEVYAGSHQYPGRGVYLLKFDNSYSLWRSKSVYYRVYYTR
- progesterone production in response to hormonal (hCG) stimulation (MA-10 cells): significantly reduced
- progesterone production in response to hormonal (hCG) stimulation (MA-10 cells; listed as PAP7 fragment): significantly inhibited
